Article PMC6820244
Read-outs that look alike come from different tables or passages of the source.

Legend:
WRNIP1 (short isoform) [1] = target: T1, WRNIP1 (short isoform) (Homo sapiens, UniProt Q96S55-2 1-640); experiment: EMSA
T1 sequence: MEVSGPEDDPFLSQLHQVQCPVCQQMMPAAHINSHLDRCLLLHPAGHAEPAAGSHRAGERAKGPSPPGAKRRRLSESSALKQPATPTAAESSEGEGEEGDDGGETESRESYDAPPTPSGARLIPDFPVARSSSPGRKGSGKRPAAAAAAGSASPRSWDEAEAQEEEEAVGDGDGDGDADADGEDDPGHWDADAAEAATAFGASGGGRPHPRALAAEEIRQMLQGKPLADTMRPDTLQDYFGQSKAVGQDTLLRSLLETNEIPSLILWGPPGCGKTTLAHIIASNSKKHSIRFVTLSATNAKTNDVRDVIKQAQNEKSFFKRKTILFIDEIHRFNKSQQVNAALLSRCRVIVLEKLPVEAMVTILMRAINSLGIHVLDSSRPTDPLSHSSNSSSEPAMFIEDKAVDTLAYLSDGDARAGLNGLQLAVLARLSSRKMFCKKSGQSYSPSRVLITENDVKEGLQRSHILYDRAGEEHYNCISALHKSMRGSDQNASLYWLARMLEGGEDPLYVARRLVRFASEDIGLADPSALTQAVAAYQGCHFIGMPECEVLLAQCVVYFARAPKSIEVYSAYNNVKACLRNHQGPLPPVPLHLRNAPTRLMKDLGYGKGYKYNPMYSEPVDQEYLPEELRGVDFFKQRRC

WRNIP1 (short isoform) [2] = target: T1, WRNIP1 (short isoform); experiment: EMSA; remark: listed apart in the source

B1: ssDNA X01 (ssDNA)
DNA: GACGCTGCCGAATTCTACCAGTGCCTTGCTAGGACATCTTTGCCCACCTGCAGGTTCACCC
binding result (WRNIP1 (short isoform) [1]): no binding

B2: nicked four-way junction (structured_DNA)
DNA 1: B1 DNA
DNA 2: TGGGTGAACCTGCAGGTGGGCAAAGATGTCCATCTGTTGTAATCGTCAAGCTTTATGCCGTT
DNA 3: CATGGAGCTGTCTAGAGGATCCGACTATCGA
DNA 4: GAACGGCATAAAGCTTGACGATTACAACAGAT
DNA 5: ATCGATAGTCGGATCCTCTAGACAGCTCCATGTAGCAAGGCACTGGTAGAATTCGGCAGCGT
binding result (WRNIP1 (short isoform) [2]): binds
